5 molecules from patent US20210198347A1 (Chugai, published 2021) can be followed below.

The assay has as its target T1, Native proenzyme human C1s (Comptech A103) (human, UniProt P09871 16-688).
T1 construct: mature; Bought native protein; also called native human C1s Proenzyme; native human C1s proenzyme protein (CompTech)
T1 sequence (looked up): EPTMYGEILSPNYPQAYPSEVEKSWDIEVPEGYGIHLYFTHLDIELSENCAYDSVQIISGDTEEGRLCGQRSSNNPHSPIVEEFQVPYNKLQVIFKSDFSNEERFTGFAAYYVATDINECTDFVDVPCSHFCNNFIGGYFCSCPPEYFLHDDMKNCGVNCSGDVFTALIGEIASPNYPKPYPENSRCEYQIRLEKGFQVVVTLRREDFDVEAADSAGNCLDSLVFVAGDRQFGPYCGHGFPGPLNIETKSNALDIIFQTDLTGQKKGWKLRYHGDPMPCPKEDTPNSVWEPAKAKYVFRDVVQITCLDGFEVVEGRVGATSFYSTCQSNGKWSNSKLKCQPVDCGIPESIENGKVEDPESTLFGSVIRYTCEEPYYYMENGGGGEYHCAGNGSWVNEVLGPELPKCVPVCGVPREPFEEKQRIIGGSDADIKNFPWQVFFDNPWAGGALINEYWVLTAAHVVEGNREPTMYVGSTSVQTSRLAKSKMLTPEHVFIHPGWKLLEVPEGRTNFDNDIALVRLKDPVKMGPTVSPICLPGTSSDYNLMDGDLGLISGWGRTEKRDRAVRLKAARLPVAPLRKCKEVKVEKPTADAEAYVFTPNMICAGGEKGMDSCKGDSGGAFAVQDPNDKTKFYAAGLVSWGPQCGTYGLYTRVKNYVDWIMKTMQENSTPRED
Nature of the assay: SPR (BIACORE T200, 37 degrees C, pH 7.4), antibody captured by protein A/G, C1s 50 nM. As for the experimental part: The binding specificities of the six C1s CUB1-EGF-CUB2 binders were determined at 37 degrees C. using BIACORE® T200 instrument (GE Healthcare). Recombinant Protein A/G (Pierce) was immobilized onto all flow cells of a CM4 sensor chip using an amine coupling kit (GE Healthcare). Antibodies and analytes were prepared in 7(+) buffer (20 mM ACES, 150 mM NaCl, 1.2 mM CaCl₂, 0.05% Tween 20, 0.005% NaN₃, pH 7.4). Each antibody was captured onto the sensor surface by protein A/G. Antibody capture levels were aimed at 100 resonance unit (RU). Native proenzyme human C1s (Comptech A103) (at 50 nM as a monomer) or recombinant human C1s CCP1-CCP2-SP-His (at 100 nM as a monomer) was injected, followed by dissociation. Sensor surface was regenerated each cycle with 10 mM Glycine-HCl pH 1.5. The six C1s CUB1-EGF-CUB2 binders bound to the native proenzyme human C1s, but not recombinant human C1s CCP1-CCP2-SP-His, which is a truncated protein lacking the CUB1-EGF-CUB2 domain.
(In SPR one partner is held on a chip, and binding of the other changes the refractive index at the surface.)

B1: COS0547gg-SG1148 (antibody, human IgG1, kappa, V domains shown)
VH: QSLEESGGRLVTPGTPLTLTCTASGFSLSSYHMDWVRQAPGKGLEWIGIITYTGDTYYATWAKGRFTISKTSSTTVDLKMASLTTEDTATYFCARRQYDAYNVWGPGTLVTVSS
VL: AYDMTQTPASVEVAVGGTVTIKCQASQSINNYLAWYQQKPGQPPKLLIYYASTLASGVPSRFKGSRSGTEFTLTISGVECADAATYYCQHGYYTSSNIDSVFGGGTKVEIKR
Turning to B1, the binding result is reported as “binds”.

B2: COS0637cc-SG1148 (antibody, human IgG1, kappa, V domains shown)
VH: QSLEESGGRLVTPGTPLTLTCTASGFSLSAYAMNWVRQAPGKGLEWIGLIYGSGSTFYASWAKGRFTISKTSTTVDLKMTSLTTEDTATYFCARGRSVNYNSDFKLWGPGTLVTVSS
VL: QVLTQTPSSVSAAVGGTVTINCQASQSLHDKKNLAWYQHKPGQRPNLLIYGASTLESGVPSRFKGSGSGTEYTLTISDLECDDAAAYYCQGEFSCSSADCNTFGGGTKVEIKR
Take B2: the binding result is on record as “binds”.

B3: COS0631gg-SG1148 (antibody, human IgG1, kappa, V domains shown)
VH: QSVEESGGRLVTPGTPLTLTCTVSGFSLSRYSMGWVRQAPGKGLEWIGIIYADGGAYYASWAKGRFTISKTSTTMDLKVTSPTTEDTATYFCARGQFINSNEFFNPWGPGTLVTVSS
VL: QVLTQTASSVSAVVGGTVTINCQASQSLHNNKNLAWYQQKPGQPPRLLIYYASTLASGVSSRFKGSGSGTQFTLTISDLECDDAATYYCAGEFSCSNGDCNAFGGGTKVEIKR
Consider B3, for which the binding result is given as “binds”.

B4: COS0499ee-SG1148 (antibody, human IgG1, kappa, V domains shown)
VH: QSLEESGGRLVTPGTPLTLTCTASGFSLSNYNMAWVRQAPGKGLEWIGIIETTTNTYYARWARGRFTISKTSSTTVDLQIASPTTEDTATYFCGRRVSNSHDLWGPGTLVTVSS
VL: AYDMTQTPASVSAAVGGTVTINCQASQTIGGWCAWYQQKPGQPPKLLIYKASTLASGVSSRFKGSGSGTEFALTISDLECDDAATYYCQHGYYTSSTIENTFGGGTKVEIKR
notes: also called COS499; COS499ee(-SG1148)
For the molecule B4, the binding result is reported as “binds”.

B5: COS0448oo-SG1148 (antibody, human IgG1, kappa, V domains shown)
VH: QSVEESGGRLVTPGTPLTLTCTVSGFSLSNYGMIWVRQAPGEGLEYIGFVSGSGSAYYANWVKGRFTISKTSTTVDLKMTSLTTEDTATYFCARGAYNTDSYSYSLYYGMDLWGPGTLVTVSS
VL: QIVMTQTPASVEVAVGGTVTIKCQASQSIYSYLSWYQQKPGQPPKLLIYGASTLASGVPSRFKGSRSGTEFTLTISDLECADAATYYCQSNYATTTTYGTFGGGTKVEIKR
notes: Rabbit B-cell derived variable regions; also called COS448; COS44800(-SG1148)
For B5, the binding result was “binds”.
